For one assay, the target named is jurkat细胞表面的DR5蛋白 (UniProt O14763 56-440, limits assumed). The assay is described as follows: cell-based or functional assay.
Another assay addresses sDR5-Fc-biotin (UniProt O14763). The assay is described as follows: competition ELISA: sDR5-Fc-biotin 7.5 ug/ml preincubated with 6C93D6 30 ug/ml, added to coated human TRAIL (5 ug/ml); Streptavidin-HRP; the OD is the remaining binding of the complex to TRAIL. In general terms: In an ELISA, binding on a coated surface is turned into a signal by an enzyme label.
The next assay deals with T1, sDR5-Fc蛋白 (UniProt O14763 56-182, limits assumed).
T1 construct: Immunogen and BLI ligand; not shown: it was captured on AHC (Anti-hIgG Fc Capture) sensors
Briefly: BLI (OCTET K2), sDR5-Fc 10 ug/ml captured on AHC sensors, 6C93D6 at 76-4.75 nM in solution.

The target of another assay is T2, 人DR4抗原 (human, UniProt O00220 24-239, limits assumed).
T2 construct: also called death receptor 4
T2 sequence (looked up): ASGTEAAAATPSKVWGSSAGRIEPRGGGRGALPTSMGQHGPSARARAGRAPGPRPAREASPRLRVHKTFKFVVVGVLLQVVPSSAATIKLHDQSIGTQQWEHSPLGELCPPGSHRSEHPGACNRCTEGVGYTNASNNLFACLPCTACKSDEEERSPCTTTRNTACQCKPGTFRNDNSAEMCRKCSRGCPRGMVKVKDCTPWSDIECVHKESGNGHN
Briefly: ELISA, DR4 coated, goat anti-mouse IgG-HRP, OD450.

The Kd is the equilibrium constant for the complex coming apart. Read a high Kd as weaker binding.

B1: 6C93D6抗体 (抗DR5的单克隆抗体) (antibody, V domains shown)
VH: EVQLQQSGPDLVKPGASVKISCKASGYSFTGHYMHWVKQSHGQSLEWIGRVNPNNGGTGYNQKFKDKAILTVDKPSSTAYMELRSLTSEDSAVYYCARNGAYYRSDGNYFDYWGQGTTLTVSS
VL: DIVLTQSTPSLAVSLGQRATISCRASESVDSYGNSFMHWFQQKPGQPPKLLIYRASNLESGIPARFSGSGSRTDFTLTINPVEADDVATYYCQQSNEDPYTFGGGTKLEIK
notes: Mouse hybridoma monoclonal antibody purified from ascites on Protein G
Consider B1, for which, in the assay with jurkat细胞表面的DR5蛋白, the “诱导HepaRG细胞凋亡的EC50 (1ug/ml交联剂 anti-mouse IgG Fc antibody; MTS/PMS, A490-A630)” value came to 68.5 pg/mL and the “诱导HepaRG细胞凋亡的EC50 (无交联剂; MTS/PMS, A490-A630)” value stood at 1.1 µg/mL. Besides, the OD450 with sDR5-Fc-biotin was determined as 0.105. In the assay with sDR5-Fc蛋白, this molecule displayed an equilibrium dissociation constant (Kd) of 6.77 nM. The binding result with 人DR4抗原 is “no binding”.

The values are drawn from patent CN109810193A (SHENZHEN INST ADV TECH, dated 2019).
